Results published in the nanobody polyreactivity screen of Harvey et al. (2022).

Assay: yeast display, Sf9 membrane polyspecificity reagent, FACS + sequencing; frameworks hold sequencing errors
Method in brief: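 A synthetic nanobody library was expressed on Saccharomyces cerevisiae BJ5465 by galactose induction for 36–48 hours. The library was stained for 1 hour at 4 °C with 10% biotinylated, detergent-solubilized Sf9 membrane reagent and enriched with streptavidin microbeads before FACS. Low and high (top ~1%) gates were set on anti-HA fluorescence for expression and streptavidin fluorescence for reagent binding, and each polyreactivity label reflects the gate of origin.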

| Sequence | polyreactivity (PSR sort gate) |
| --- | --- |
| QVQLVESGRGLVQAGGSLRLSSAASGRIFPTNAMGWYRQAPGKERELVASIDSGDITHYADSVKGRFTISRDNAMNTVYLQMISLKPEDTAVYYCAKRPQAQYTYITGDDYWGQGTQVTVSS | low polyreactivity |
| QVQLVESGRGLVQAGGSLRLTCAASGRIFYLNAMGGYRQAPGKERELVAGITNSTTGTYYADSVKGRFTIARDNAKNTVYLQMNSLKPVDTAVYYCNTDVAYEEPVETYDYWGQGTQVTVSS | low polyreactivity |
| QVQLVESGRGLVQAGGSLRLTCAASGSTFTANDMGGSRPATGTERELFADISSGDGTNYADSVKGRFTISRDNAKNTVYLQMISLKPEDTAVYYCAKDVYNFRTTHSYFTGYDSWGHGTQVTVSS | low polyreactivity |
| QVQLVESGRGLVQAGGSLSLSCAASGRIFYYYVMGWYRQAPGKERELVAVIDWSGGSTYYADSVKGRFTISRVNAKNTVYLQMNSLKPEDTAVYYCAKVGLNFSLAYEDYDYWGQGTQVTVSS | low polyreactivity |
| QVQLVESGRGLVQAGGSRRLSCAASGSIITWNAMARYRQAPGKERELFAAIDWDGGSTYYADSVKGRFTISRDNAKNTVYFQMNSLKPEDTAVYYCAATYGWYTGRYPSGHYYYWGQGTQVTVSS | low polyreactivity |
| QVQLVESGRGLVQAGGTLRLSCAASGRIFYWNAMGWYRQAHGKERELVAAISWSGGSTYYADSVKGRFTISRDNAKNTVYLQMNSLKPEDTAVYYCAADGGRRTYYVKYDYWGQGTQVTVSS | low polyreactivity |
| QVQLVESGRGLVQAGGTLRLSCAASGSIFGYYAMGWYRQAPGKERELVASISGSGGTTYYADSVKGRFTISRDNAKNTVYLQMNSLNPEDTAVYYCAARRSIYGYPFVTSRRGYWGQGTQVTVSS | high polyreactivity |
| QVQLVESGRGLVQAGVSLRLSCASSGSTFTLNVMGWYRKAPVKERELVAGFSKRGGNTYYADSVKGRFTISRDYAKNTVYLQMNRLKPEDTAVYFCAKRQGVGYGYYYLGQGTQVTVSS | high polyreactivity |
| QVQLVESGRGLVRAGGSLRLSCAASGRTFGVYAMGWYRQAPGKERELVASIRYSGVSTYYADSVKGRFTISRDNAKNTVYLQMNSLKPEDTAVYYCAARYRSRRVDYGYDYWGQGTQVTVSS | high polyreactivity |
| QVQLVESGTGLVQAGGSLRLSCADSGITFVFYSMGSYRQAPGKESELVATISYRGTSTYYADSVKGLFTISRDNAKNSVSLQMNSLKPEDTAVYYCAADTFIYYKTGYGYWGQGTQVTVSS | low polyreactivity |
| QVQLVESGVCLVQAGGSLRLSCAASGFTYYFYTMGWYRQAPGKERELVARITARGGSTYYADSVKGRFTISRDNAKNTVYLQMNSLKPEDTAVYYCAAVTYFGWYPYRMEYWGQGTQVTVSS | high polyreactivity |
| QVQLVESGVGIVQAGGSLRLSCAASGFTFDNYVMGWYRQAPGKERELVAAISTGSRTYYADSVKGRFTISRDNAKNTVYLQMNSLKPEDTAVYYCAASYVRRSWYSNDYWGQGTQVTVSS | high polyreactivity |
| QVQLVESGVGLDQAGGSLRLSCAASGSIFRRYAMGWYRQAHGKERELVAAISSNGGSTYYADSVKGRFTISRDNAKNTVYLQMNSLKPEDTAVYYCTAPPLYRDEYWGQGTQVTVAS | high polyreactivity |
| QVQLVESGVGLDQAGGSLRLSCAASGSIIWYYAMGWYRQAPGKERELVAAITVSGGSTYYADSVKGRFTISRDNAKNTVYLEMNTLKPEDTAVYYCAALYISLSGDEYDYWGQGTQVTVSS | low polyreactivity |
| QVQLVESGVGLLQAGGSLSLSCSASGSTLYYAMGWYRQAPGKERELVASITFSTGSTYYADSVKGRFTISRDNAKNTVYLQMNSLKPEDTAVYYCATGVDTYYLTVEHDSWGQGTQVTVSS | low polyreactivity |
| QVQLVESGVGLVKAGGSLRLSCAASGITFGFYAMGWYRQAPGKDRELVASISSRGGSTNYADSVKGRFTISRDNAKNTVYLQMNSLKPEDTAVYYCAVAWLVRGGGGRRTFYSWGQGTQVTVSS | high polyreactivity |

| Sequence | polyreactivity (PSR sort gate) |
| --- | --- |
| QVQLVESGVGLVQAAGSLRLSCAASGRIFKYYAMGWYRQAPGKERELVATISRGSRTNYADSVKGRFTISRDNAKNTVYLQMNSLKPEDTAVYYCAAQRLSASRPYGYWGQGTQVTVSS | high polyreactivity |
| QVQLVESGVGLVQAGGSHRLSSGASGSIFSSYAMGWYRQEPVKERELVADISQSGGDTYYADSVQGRFTISRDNANNTVYLQRNSLKPEDNAVYYCAASVWYYPMDYWGKGTQVTVSS | low polyreactivity |
| QVQLVESGVGLVQAGGSLLLSCAASGRIFRVYAMGWYRQAPGKERELVAAISWSGGRTYYADSVKGRFTISRDNAKNTVYLQMNSLKPEDTAVYYCAAERCGPTYYSGGDYDYWGQGTQVTVSS | high polyreactivity |
| QVQLVESGVGLVQAGGSLRISCAASGRIYRSNAMGWYRQAPGKERELLAAISSNGGSTYYADSVKGRFTISRDNAKNTVYLQMNSLKPEDTAVYYCAARVYYPVRYGYWGQGTQVSVSS | high polyreactivity |
| QVQLVESGVGLVQAGGSLRLICAASGRTFAYYAMGWYRQAPGKERELVAAISSGGRTNYADSVKGRFTISRDNAKNTVYLQMNSLKPEDTAVYYCARKASYQIYNGQYGGFGYGYWGQGTQVTVSS | high polyreactivity |
| QVQLVESGVGLVQAGGSLRLICDASGRIYSYYAIGWYRQAPGKETELVASISRSGGSTYYADSVKGRFTISRDNAKNTVYLQMNSLKPEETAVYYCAAYKYVRSYPYDYWGQGTQVTVSS | low polyreactivity |
| QVQLVESGVGLVQAGGSLRLRCAASGSIFRRYAMGWYRQAPGKERELVARITSSSGTTTYADSVKGRFTISRYNSKNNVYLQMNSLKPEDTAVYYCAAAWWHAYYGKNYYWGQGTQVTVSS | high polyreactivity |
| QVQLVESGVGLVQAGGSLRLSCAASGFIFPYYTMGWYRQAPGKERELVAAISASSGRTYYADSVKGRFTISSDNAKNTVYLQMNSLKPEDTAVYYCAAKTYEPRKYEYWGQGTQVTVSS | high polyreactivity |
| QVQLVESGVGLVQAGGSLRLSCAASGFLIRYYAMGWYRQAPGKERELVASIDWSGGNTYYADSVKGRFTSSRDKAKITVYFQMNSLKPEDTAVYSCNRRGMDWGQGTQVNVSS | low polyreactivity |
| QVQLVESGVGLVQAGGSLRLSCAASGFTFARYAMGRYRQAPGKEREFVAAISLSTTSTYYADSVKGRFTISRDYANNNVFLQMNSLKPEDTAVYYCATDIVGPHFDYWGQGTQVSVSS | low polyreactivity |
| QVQLVESGVGLVQAGGSLRLSCAASGFTFYPYAMGWYRQAPGKERELVASITNGGSTNYADSVKGRFTISRDNAKNTVYLQMNSLKPEDTAVYYCTAAYGFYASRYWYASYDYWGQGTQVTVSS | low polyreactivity |
| QVQLVESGVGLVQAGGSLRLSCAASGIITFYNAMGWYRQAPGKERELVAAITWSGGSTYYADSVKGRFTISRDNAKNTVYVQLNSLKPEDTAVYYCAADVVSVVYLPFVNGGDYWGLGTQVTVSS | low polyreactivity |
| QVQLVESGVGLVQAGGSLRLSCAASGITFGRNTMGWYRQAPGKERELVAAIDSGGNTYADSVKGRFTISRDNAKNTVYLQMNSLRSEDTAVYYCNARETHQSRYGYWGQGTQVTVSS | low polyreactivity |
| QVQLVESGVGLVQAGGSLRLSCAASGITFIPYAMGWYRQAPGKERELVASISDGGGTNYADSVKGLFTISRDNAKNTVYLQKNSLNPEDTAVYYCATYASTYSYYGGDYWGQGTPVTVSS | low polyreactivity |
| QVQLVESGVGLVQAGGSLRLSCAASGITFSSYAMGWYRQAPGKERELVAAITRSGSTTYADSVKGRFTISRDNAKNTVYLQMNSLKPEDTAVYYCAVDYYYLTGGVDYWGQGTQVTVSS | low polyreactivity |
